Laboratory results published in publication PMC4718513.

Molecular target: VAPB-MSP domain, MSP(1–125) (human) (UniProt O95292)
Test: NMR titration; 1H-15N HSQC of 15N-labelled VAPB protein (50 uM) with unlabelled NS5B or Eph protein added at different molar ratios (increment 0.5 for C-linker and Eph); 10 mM phosphate buffer pH 6.8, 25 C, 800 MHz; CSD tracings fitted with a one binding site model for residue-specific Kd

Chain of UniProt O95292 (O95292 1-125): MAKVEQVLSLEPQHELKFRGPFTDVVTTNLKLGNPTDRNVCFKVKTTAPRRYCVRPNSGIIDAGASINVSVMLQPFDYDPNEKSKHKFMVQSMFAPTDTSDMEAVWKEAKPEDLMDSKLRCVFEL

Substance: NS5B C-linker peptide (531–570)
- Kd: 8.8 µM
- residue-specific Kd (MSP residue 53C): 1.4 µM
- residue-specific Kd (MSP residue 79D): 13.6 µM
- residue-specific Kd (MSP residue 82E): 12.8 µM
- residue-specific Kd (MSP residue 90V): 9 µM
- residue-specific Kd (MSP residue 116D): 5.7 µM
- residue-specific Kd (MSP residue 118K): 2.9 µM
- residue-specific Kd (MSP residue 119L): 16 µM
